# From paper PMC5739008 (The ISME journal, 2017)
# B1: methanethiol oxidase (MTO) of Hyphomicrobium sp. VS (enzyme)
# chain: DETCNSPFTTALITGQEQYLHVWTLGMPGVGDESDKLVTISVDPKSDKYGKVINTLSVGGRGEAHHTGFTDDRRYLWAGRLDDNKIFIFDLIDPANPKLIKTITDFADRTGYVGPHTFYALPGRMLIQALSNTKTHDGQTGLAVYSNAGELVSLHPMPVTDGGDGYGYDIGINPAKNVLLTSSFTGWNNYMMDLGKMVKDPEAMKRFGNTMAIWDLKSMKAEKILNVPGAPLEIRWSLKPEHNWAYTATALTSKLWLIKQDDKGEWIAKETGTIGDPSKIPLPVDISITADAKGLWVNTFLDGTTRFYDISEPEHPKEVFSKKMGNQVNMVSQSYDGKRVYFTTSLIANWDKKGAENDQWLKAYDWDGKELVEKFTVDFNELKLGRAHHMKFSSKTNAAELGTNQSFPTRQ
# Target: the molecule itself
# Assay: SEC
protein,measurement,value
B1,stoichiometry N,4
